Ends that are not written are not given here. carboxyfluorescein = carboxyfluorescein (fluorescent group)

The experiment has as its target amylase. Nature of the experiment: fluorescence of immobilized carboxyfluorescein-labeled peptide on chip, ex 490 nm / em 520 nm, 1.0 uM amylase, 25 C, 5 min.

B1: Lys(Rf)-Tyr-Gln-Ser-Trp-Arg-Tyr-Ser-Gln-Ala-Cys-NH2 (peptide)
peptide: K(carboxyfluorescein)YQSWRYSQAC-NH2
In turn, B1 returned an increase of the fluorescence intensity (fold) of 10 times.

(Values after patent US8148141.)
